Assay results: patent publication US20250002610A1 (Genmab, published 2025)

Tests used:
[1] = target: T1, FcγRIa (CD64 Protein, Human, Recombinant (ECD, His Tag)) (human, UniProt P12314 16-292); test: SPR (Biacore 8K), His-tagged FcγRIa captured on an anti-His chip, antibody as analyte, endpoint response against concentration
T1 construct: extracellular domain; Bought reagent; not shown: His tag
Protocol: Binding of BisG1-FAPα-FERL/DR4-FERR to immobilized human His-tagged FcγRs and FcRn was analyzed by SPR using a Biacore 8K SPR system (Cytiva). To this end, anti-His antibodies were covalently immobilized on the surface of Biacore Series S Sensor Chip CM5 (Cytiva, Cat. #29104988) using the Amine Coupling Kit (Cytiva, Cat. #BR100050) and a His Capture Kit (Cytiva, Cat. #29234602) according to the manufacturer's instructions. To assess antibody binding to immobilized human FcγRs, aliquots of the recombinant His-tagged FcγR proteins (Table 24) were diluted in HBS EP+Buffer pH 7.4 (Cytiva, Cat. #BR100669) and used to capture the FcγR proteins on the surface of the anti-His antibody-coated sensors using a flow rate of 10 μL/min and a contact time of 60 s. Captured levels ranged from 434 to 592 RU. After three start-up cycles of HBS-EP+Buffer, concentration ranges of BisG1-FAPα-FERL/DR4-FERR or IgG1-b12 antibodies (Table 25) were injected to generate binding curves on FcγR-captured sensors (active surface). For each antibody sample, a parallel flow cell without captured FcγRs was included (reference surface), which was used for RU background correction.
All sensorgrams were subtracted by the signal of the third start-up cycle with buffer only (mock analyte). […]

[2] = target: T2, His-tagged recombinant human FAPα (R&D Systems, Cat #3715-SE) (human, UniProt Q12884 26-760); test: BLI sandwich cross-block assay
T2 construct: not shown: His tag
T2 sequence (looked up): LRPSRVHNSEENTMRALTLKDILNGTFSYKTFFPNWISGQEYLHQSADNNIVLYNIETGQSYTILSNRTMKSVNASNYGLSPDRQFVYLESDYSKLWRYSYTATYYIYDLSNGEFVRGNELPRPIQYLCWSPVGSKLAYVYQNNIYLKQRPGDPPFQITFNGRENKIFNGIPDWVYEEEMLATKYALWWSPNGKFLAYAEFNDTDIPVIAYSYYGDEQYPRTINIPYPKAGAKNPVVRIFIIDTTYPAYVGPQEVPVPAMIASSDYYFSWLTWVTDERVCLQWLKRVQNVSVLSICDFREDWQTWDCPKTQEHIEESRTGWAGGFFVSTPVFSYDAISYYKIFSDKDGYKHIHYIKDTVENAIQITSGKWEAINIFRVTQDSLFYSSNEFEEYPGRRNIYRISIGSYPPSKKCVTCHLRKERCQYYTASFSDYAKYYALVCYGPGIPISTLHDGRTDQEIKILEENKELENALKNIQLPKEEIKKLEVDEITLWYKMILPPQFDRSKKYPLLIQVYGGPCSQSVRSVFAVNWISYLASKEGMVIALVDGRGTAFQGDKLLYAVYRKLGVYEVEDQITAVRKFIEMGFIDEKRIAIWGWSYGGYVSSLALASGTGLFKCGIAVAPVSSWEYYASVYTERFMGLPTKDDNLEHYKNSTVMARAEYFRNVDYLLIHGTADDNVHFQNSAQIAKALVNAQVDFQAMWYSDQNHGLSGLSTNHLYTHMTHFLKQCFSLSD
Protocol: Sandwich cross-block experiments were carried out while shaking at 1,000 RPM at 30° C. […] The activated AR2G sensors were loaded with 10 μg/mL of the first antibody in 10 mM Sodium Acetate pH 6.0 (ForteBio, cat. no. 18-1070) for 600 s and quenched with 1 M ethanolamine pH 8.5 (ForteBio, Cat. #18-1071) for 300 s. After a baseline measurement in Sample Diluent (30 s; FortéBio, Cat. #18-1048), the AR2G biosensors containing immobilized antibodies were loaded for 200 s with His-tagged recombinant human FAPα (R&D Systems, Cat #3715-SE, 100 nM in Sample Diluent) for 200 s. The theoretical molecular mass of His-tagged recombinant human FAPα protein based on the amino acid sequence (86 kDa) was used for calculations. The association (200 s) of a second antibody (5 μg/mL in Sample Diluent) was determined. Sensors were regenerated by exposure to 10 mM glycine pH 2.5 (Riedl-deHaen, Cat. #15527) for 5 s, followed by neutralization in Sample Diluent for 5 s; both steps were repeated twice. Subsequently, the sensors containing immobilized first antibody were used again, starting with the baseline step.
Data were acquired using Data Acquisition Software v9 (ForteBio) and analyzed with Data Analysis HT Software v9 (ForteBio). The Y-axis was aligned to the start of the association step and Savitzky-Golay filtering was applied. […]

[3] = target: T3, cynomolgus monkey DR4 with death domain deletion on ExpiCHO-S cells (cynomolgus monkey (Macaca fascicularis)); test: flow cytometry on ExpiCHO-S cells transiently expressing cynomolgus monkey DR4 (death domain deleted), gMFI PE
T3 construct: also called cynomolgus DR4
T3 chain: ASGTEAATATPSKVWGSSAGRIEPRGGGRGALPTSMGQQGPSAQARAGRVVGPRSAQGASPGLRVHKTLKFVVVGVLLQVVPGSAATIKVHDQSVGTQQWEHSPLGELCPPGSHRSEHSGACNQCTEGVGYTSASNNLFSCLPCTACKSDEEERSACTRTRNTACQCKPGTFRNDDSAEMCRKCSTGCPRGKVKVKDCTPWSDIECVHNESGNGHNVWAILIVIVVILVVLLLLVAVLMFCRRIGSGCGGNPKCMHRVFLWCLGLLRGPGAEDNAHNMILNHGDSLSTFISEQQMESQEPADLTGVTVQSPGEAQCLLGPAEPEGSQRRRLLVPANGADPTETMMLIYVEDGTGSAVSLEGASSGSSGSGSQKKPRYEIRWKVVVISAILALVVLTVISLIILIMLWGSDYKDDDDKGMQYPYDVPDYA

T1 sequence (P12314 16-292): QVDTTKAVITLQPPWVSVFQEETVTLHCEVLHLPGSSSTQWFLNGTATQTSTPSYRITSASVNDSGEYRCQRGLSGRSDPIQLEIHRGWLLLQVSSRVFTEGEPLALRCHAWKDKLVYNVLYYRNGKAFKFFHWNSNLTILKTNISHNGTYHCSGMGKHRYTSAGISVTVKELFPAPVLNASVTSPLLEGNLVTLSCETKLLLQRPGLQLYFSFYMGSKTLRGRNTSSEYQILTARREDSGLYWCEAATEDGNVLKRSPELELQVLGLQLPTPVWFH

B1: IgG1-b12 (antibody)
heavy: not shown
light: EIVLTQSPGTLSLSPGERATFSCRSSHSIRSRRVAWYQHKPGQAPRLVIHGVSNRASGISDRFSGSGSGTDFTLTITRVEPEDFALYYCQVYGASSYTFGQGTKLERKRTVAAPSVFIFPPSDEQLKSGTASVVCLLNNFYPREAKVQWKVDNALQSGNSQESVTEQDSKDSTYSLSSTLTLSKADYEKHKVYACEVTHQGLSSPVTKSFNRGEC
notes: HIV gp120 antibody b12 with wild-type IgG1 Fc; also called IgG-b12
binding result [1]: binds | binding result [2]: no binding

B2: BisG1-FAPα-FERL/DR4-FERR (bispecific antibody, human IgG1, kappa, lambda)
heavy 1: EVQLLESGGGLVQPGGSPRLSCEASGFTFSSYALSWVRQAPGKGLEWVSAISGSGGGRYYADSVKGRFTISRDNSKNTLFLQMNSLRAEDTAVYYCAKEGYSSSGTYWDHWGQGTLVTVSSASTKGPSVFPLAPSSKSTSGGTAALGCLVKDYFPEPVTVSWNSGALTSGVHTFPAVLQSSGLYSLSSVVTVPSSSLGTQTYICNVNHKPSNTKVDKRVEPKSCDKTHTCPPCPAPEFERGPSVFLFPPKPKDTLMISRTPEVTCVVVDVSHEDPEVKFNWYVDGVEVHNAKTKPREEQYNSTYRVVSVLTVLHQDWLNGKEYKCKVSNKALPAPIEKTISKAKGQPREPQVYTLPPSREEMTKNQVSLTCLVKGFYPSDIAVEWESNGQPENNYKTTPPVLDSDGSFLLYSKLTVDKSRWQQGNVFSCSVMHEALHNHYTQKSLSLSPG
light 1: AIQMTQSPSSVSASVGDRVTITCRASQGVSSWLAWYQQKPGRAPKLLIYVASTLQSGVPSRFSGSGSGTDFTLTINSLQPEDFATYYCQQANSFPPTFGQGTRLEMKRTVAAPSVFIFPPSDEQLKSGTASVVCLLNNFYPREAKVQWKVDNALQSGNSQESVTEQDSKDSTYSLSSTLTLSKADYEKHKVYACEVTHQGLSSPVTKSFNRGEC
heavy 2: QVQLQESGPGLVKPSGTLSLTCAVSGGSISSYSWWSWIRQPPGKGLEWIGELYHSGSTNYNPSLKSRVTISVDKSKNQFSLKLRSVTAADTAVYYCVRGVATIDYWGQGTLVTVSSASTKGPSVFPLAPSSKSTSGGTAALGCLVKDYFPEPVTVSWNSGALTSGVHTFPAVLQSSGLYSLSSVVTVPSSSLGTQTYICNVNHKPSNTKVDKRVEPKSCDKTHTCPPCPAPEFERGPSVFLFPPKPKDTLMISRTPEVTCVVVDVSHEDPEVKFNWYVDGVEVHNAKTKPREEQYNSTYRVVSVLTVLHQDWLNGKEYKCKVSNKALPAPIEKTISKAKGQPREPQVYTLPPSREEMTKNQVSLTCLVKGFYPSDIAVEWESNGQPENNYKTTPPVLDSDGSFFLYSRLTVDKSRWQQGNVFSCSVMHEALHNHYTQKSLSLSPG
light 2: QSALTQPPSASGSPGQSVTISCTGTSSDVGGYNFVSWYQQDPGKAPKLLIYEVTKRPSGVPDRFSGSKSGNTASLTVSGLQAEDEADYYCSSYAGSNNVMFGGGTKLTVLGQPKAAPSVTLFPPSSEELQANKATLVCLISDFYPGAVTVAWKADSSPVKAGVETTTPSKQSNNKYAASSYLSLTPEQWKSHRSYSCQVTHEGSTVEKTVAPTECS
notes: Human IgG1 bispecific made by controlled Fab-arm exchange of IgG1-FAPα-FERL and IgG1-DR4-FERR; monovalent for FAPα and for DR4; also called GEN1057
EC50 (read off the curve) [3]: ~1 µg/mL
